Data: article PMC2171992 (The Journal of Cell Biology, 2004)
Residue numbers refer to the chain shown, from its start. Names and notes keep the numbering of the source. One block for each binder: values may come before it.

Experiments:
muscle actin [1] = target: T1, muscle actin (UniProt P68135 1-377, labeled with pyrene); assay: seeded actin assembly kinetics
muscle actin [2] = target: T1, muscle actin; assay: apparent critical concentration for actin polymerization at steady state
muscle actin [3] = target: T1, muscle actin; assay: as above; remark: listed apart in the source

B1: wild-type yeast capping protein (Cap1/Cap2) (complex)
chain 1: MSSSKFEEVINKIINDSPPGELREVYDDLIKITSENSKNTILDAIENYNVQNCIPIEVNGNSVIISKYNKEGAKFFDPVNSVIFSVNHLERKGLDIEPYEFTHAKIEKGQLKELHDKLHEYLLQSFPGDVSFAVYPVPEEISKISIIIVSTKYNPNNFWNGHWRSSYIYDLETRELSGQISTQVHYYEDGNVSFQSGKDINQSNVDDVVCTIRDIETNFENDLDLSFFDLNEKQFKALRRRLPVTRSKINWGSAIGSYRLGKNAAEGK
chain 2: MSDAQFDAALDLLRRLNPTTLQENLNNLIELQPNLAQDLLSSVDVPLSTQKDSADSNREYLCCDYNRDIDSFRSPWSNTYYPELSPKDLQDSPFPSAPLRKLEILANDSFDVYRDLYYEGGISSVYLWDLNEEDFNGHDFAGVVLFKKNQSDHSNWDSIHVFEVTTSPSSPDSFNYRVTTTIILHLDKTKTDQNSHMMLSGNLTRQTEKDIAIDMSRPLDVIFTSHVANLGSLIEDIESQMRNLLETVYFEKTRDIFHQTKNAAIASSAEEANKDAQAEVIRGLQSL
Kd (muscle actin [1]): 1.2 nM | koff (muscle actin [1]): 0.00156 s⁻¹ | kon (muscle actin [1]): 1.16e+06 M⁻¹ s⁻¹ | Kd (muscle actin [2]): 4 nM

B2: Cap1/Cap2Δ(261–287) (complex)
chain 1: B1 chain 1
chain 2: MSDAQFDAALDLLRRLNPTTLQENLNNLIELQPNLAQDLLSSVDVPLSTQKDSADSNREYLCCDYNRDIDSFRSPWSNTYYPELSPKDLQDSPFPSAPLRKLEILANDSFDVYRDLYYEGGISSVYLWDLNEEDFNGHDFAGVVLFKKNQSDHSNWDSIHVFEVTTSPSSPDSFNYRVTTTIILHLDKTKTDQNSHMMLSGNLTRQTEKDIAIDMSRPLDVIFTSHVANLGSLIEDIESQMRNLLETVYFEKTRDIFHQT
Kd (muscle actin [1]): 7.8 nM | koff (muscle actin [1]): 0.0163 s⁻¹ | kon (muscle actin [1]): 2.09e+06 M⁻¹ s⁻¹ | Kd (muscle actin [2]): 25 nM

B3: Cap1/Cap2Δ(264–287) (complex)
chain 1: B1 chain 1
chain 2: MSDAQFDAALDLLRRLNPTTLQENLNNLIELQPNLAQDLLSSVDVPLSTQKDSADSNREYLCCDYNRDIDSFRSPWSNTYYPELSPKDLQDSPFPSAPLRKLEILANDSFDVYRDLYYEGGISSVYLWDLNEEDFNGHDFAGVVLFKKNQSDHSNWDSIHVFEVTTSPSSPDSFNYRVTTTIILHLDKTKTDQNSHMMLSGNLTRQTEKDIAIDMSRPLDVIFTSHVANLGSLIEDIESQMRNLLETVYFEKTRDIFHQTKNA
Kd (muscle actin [1]): 8 nM | koff (muscle actin [1]): 0.017 s⁻¹ | kon (muscle actin [1]): 2.1e+06 M⁻¹ s⁻¹ | Kd (muscle actin [2]): 25 nM

B6: Cap1Δ(239–268)/Cap2Δ(264–287) (complex)
chain 1: MSSSKFEEVINKIINDSPPGELREVYDDLIKITSENSKNTILDAIENYNVQNCIPIEVNGNSVIISKYNKEGAKFFDPVNSVIFSVNHLERKGLDIEPYEFTHAKIEKGQLKELHDKLHEYLLQSFPGDVSFAVYPVPEEISKISIIIVSTKYNPNNFWNGHWRSSYIYDLETRELSGQISTQVHYYEDGNVSFQSGKDINQSNVDDVVCTIRDIETNFENDLDLSFFDLNEKQFKAL
chain 2: B3 chain 2
Kd (muscle actin [1]): 33400 nM | koff (muscle actin [1]): 0.012 s⁻¹ | kon (muscle actin [1]): 370 M⁻¹ s⁻¹

Other lines, results leading:

Kd (muscle actin [1]): 176 nM | koff (muscle actin [1]): 0.0275 s⁻¹ | kon (muscle actin [1]): 156000 M⁻¹ s⁻¹ | Kd (muscle actin [2]): 400 nM
B4: Cap1 (R239A)/Cap2 (complex)
chain 1: B1 chain 1 with R239A
chain 2: B1 chain 2

Kd (muscle actin [1]): 91 nM | koff (muscle actin [1]): 0.0259 s⁻¹ | kon (muscle actin [1]): 300000 M⁻¹ s⁻¹ | Kd (muscle actin [2]): 250 nM
B5: Cap1 (W251A)/Cap2 (complex)
chain 1: B1 chain 1 with W251A
chain 2: B1 chain 2

Kd (muscle actin [3]): ≥ 100000 nM
B7: Cap1(Δ239–268)/Cap2(Δ261–287) (complex)
chain 1: B6 chain 1
chain 2: B2 chain 2
